# Reference: US20140038834
# Legend:
# [1] = tested on: dephosphorylated HPLC-purified bovine NfH (treated with alkaline phosphatase)
# [2] = tested on: HPLC-purified bovine NfH (phosphorylated)
substance,measurement,setting,value
"enterokinase (EK, EC 3.4.21.9, Roche, Cat No 11 334115001)","limited proteolysis, cleavage products seen by immunoblot",[1],"The described in vivo cleavage products can be reproduced in vitro by incubation of purified NfH with enterokinase (FIG. 2D, lane 4 and FIG. 2E, lane 8)"
same,"limited proteolysis, cleavage products seen by immunoblot",[2],"The described in vivo cleavage products can be reproduced in vitro by incubation of purified NfH with enterokinase (FIG. 2D, lane 4 and FIG. 2E, lane 8)"
